According to doi:10.1101/2022.12.26.521971:
Where “and” joins values, the source holds several entries; their conditions need not be identical. Equal entries are not always repeated.

Key:
[1] = molecular target: wild-type human Neurotensin Receptor 1 (hNTSR1) (human) (UniProt P30989); assay: radioligand binding
[2] = molecular target: wild-type rat Neurotensin Receptor 1 (rNTSR1) (rat) (UniProt P20789); assay: radioligand binding
Sequence of wild-type rat Neurotensin Receptor 1 (rNTSR1) (rat) (P20789 whole entry): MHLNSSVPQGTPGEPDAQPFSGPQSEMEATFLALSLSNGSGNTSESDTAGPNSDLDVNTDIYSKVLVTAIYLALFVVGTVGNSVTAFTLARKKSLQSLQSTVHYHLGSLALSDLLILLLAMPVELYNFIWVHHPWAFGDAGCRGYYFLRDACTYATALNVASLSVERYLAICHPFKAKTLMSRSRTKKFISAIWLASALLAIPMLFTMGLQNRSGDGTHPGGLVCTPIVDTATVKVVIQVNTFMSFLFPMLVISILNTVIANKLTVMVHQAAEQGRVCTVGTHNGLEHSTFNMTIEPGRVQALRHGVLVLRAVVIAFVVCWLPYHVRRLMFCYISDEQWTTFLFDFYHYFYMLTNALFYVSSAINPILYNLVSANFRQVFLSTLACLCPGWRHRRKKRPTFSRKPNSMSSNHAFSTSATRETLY

Sequence of wild-type human Neurotensin Receptor 1 (hNTSR1) (human) (P30989 whole entry): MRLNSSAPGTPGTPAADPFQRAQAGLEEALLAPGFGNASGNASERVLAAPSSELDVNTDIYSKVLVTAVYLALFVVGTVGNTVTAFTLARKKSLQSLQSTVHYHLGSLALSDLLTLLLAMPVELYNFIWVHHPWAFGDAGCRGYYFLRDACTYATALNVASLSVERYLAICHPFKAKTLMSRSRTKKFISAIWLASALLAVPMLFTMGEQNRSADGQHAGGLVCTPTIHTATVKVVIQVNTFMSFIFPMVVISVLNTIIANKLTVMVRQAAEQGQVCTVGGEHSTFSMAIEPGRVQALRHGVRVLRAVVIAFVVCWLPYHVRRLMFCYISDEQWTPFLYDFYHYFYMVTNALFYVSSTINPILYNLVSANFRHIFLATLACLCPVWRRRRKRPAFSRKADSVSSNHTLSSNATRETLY

For [3H]Neurotensin (peptide), the Kd [1] was 2.14 nM and 0.92 nM and the Kd [2] was 2.3 nM and 0.67 nM.
